Test results taken from PMC12586598 (2025).

Columns and labels:
Experiment in all cases: SPR
[1] = molecular target: long-acting C5a-blocking cyclic peptide drug Cp1 (head-tail cyclization of the linear peptide K1)
[2] = molecular target: K4
[3] = molecular target: K3
[4] = molecular target: linear peptide K1
[5] = molecular target: K2

Binder	Kd [1] [µM]	koff [1] [s⁻¹]	Kd [2] [µM]	koff [2] [s⁻¹]	Kd [3] [µM]	koff [3] [s⁻¹]	Kd [4] [µM]	koff [4] [s⁻¹]	Kd [5] [µM]	koff [5] [s⁻¹]
mouse C5 (natural protein) chain 1: QEQTYVISAPKILRVGSSENVVIQVHGYTEAFDATLSLKSYPDKKVTFSSGYVNLSPENKFQNAALLTLQPNQVPREESPVSHVYLEVVSKHFSKSKKIPITYNNGILFIHTDKPVYTPDQSVKIRVYSLGDDLKPAKRETVLTFIDPEGSEVDIVEENDYTGIISFPDFKIPSNPKYGVWTIKANYKKDFTTTGTAYFEIKEYVLPRFSVSIELERTFIGYKNFKNFEITVKARYFYNKVVPDAEVYAFFGLREDIKDEEKQMMHKATQAAKLVDGVAQISFDSETAVKELSYNSLEDLNNKYLYIAVTVTESSGGFSEEAEIPGVKYVLSPYTLNLVATPLFVKPGIPFSIKAQVKDSLEQAVGGVPVTLMAQTVDVNQETSDLETKRSITHDTDGVAVFVLNLPSNVTVLKFEIRTDDPELPEENQASKEYEAVAYSSLSQSYIYIAWTENYKPMLVGEYLNIMVTPKSPYIDKITHYNYLILSKGKIVQYGTREKLFSSTYQNINIPVTQNMVPSARLLVYYIVTGEQTAELVADAVWINIEEKCGNQLQVHLSPDEYVYSPGQTVSLDMVTEADSWVALSAVDRAVYKVQGNAKRAMQRVFQALDEKSDLGCGAGGGHDNADVFHLAGLTFLTNANADDSHYRDDSCKEIL chain 2: NLHLLRQKIEEQAAKYKHSVPKKCCYDGARVNFYETCEERVARVTIGPLCIRAFNECCTIANKIRKESPHKPVQLGRIHIKTLLPVMKADIRSYFPESWLWEIHRVPKRKQLQVTLPDSLTTWEIQGIGISDNGICVADTLKAKVFKEVFLEMNIPYSVVRGEQIQLKGTVYNYMTSGTKFCVKMSAVEGICTSGSSAASLHTSRPSRCVFQRIEGSSSHLVTFTLLPLEIGLHSINFSLETSFGKDILVKTLRVVPEGVKRESYAGVILDPKGIRGIVNRRKEFPYRIPLDLVPKTKVERILSVKGLLVGEFLSTVLSKEGINILTHLPKGSAEAELMSIAPVFYVFHYLEAGNHWNIFYPDTLSKRQSLEKKIKQGVVSVMSYRNADYSYSMWKGASASTWLTAFALRVLGQVAKYVKQDENSICNSLLWLVEKCQLENGSFKENSQYLPIKLQGTLPAEAQEKTLYLTAFSVIGIRKAVDICPTMKIHTALDKADSFLLENTLPSKSTFTLAIVAYALSLGDRTHPRFRLIVSALRKEAFVKGDPPIYRYWRDTLKRPDSSVPSSGTAGMVETTAYALLASLKLKDMNYANPIIKWLSEEQRYGGGFYSTQDTINAIEGLTEYSLLLKQIHLDMDINVAYKHEGDFHKYKVTEKHFLGRPVEVSLNDDLVVSTGYSSGLATVYVKTVVHKISVSEEFCSFYLKIDTQDIEASSHFRLSDSGFKRIIACASYKPSKEESTSGSSHAVMDISLPTGIGANEEDLRALVEGVDQLLTDYQIKDGHVILQLNSIPSRDFLCVRFRIFELFQVGFLNPATFTVYEYHRPDKQCTMIYSISDTRLQKVCEGAACTCVEADCAQLQAEVDLAISADSRKEKACKPETAYAYKVRITSATEENVFVKYTATLLVTYKTGEAADENSEVTFIKKMSCTNANLVKGKQYLIMGKEVLQIKHNFSFKYIYPLDSSTWIEYWPTDTTCPSCQAFVENLNNFAEDLFLNSCE	0.712	0.0745	–	–	–	–	–	–	–	–
human C5a protein (ligand) TLQKKIEEIAAKYKHSVVKKCCYDGACVNNDETCEQRAARISLGPRCIKAFTECCVVASQLRANISHKDMQLGR	7.41	0.395	–	–	–	–	–	–	–	–

The remaining lines, values ahead:

Kd [1] [µM]	koff [1] [s⁻¹]	Kd [2] [µM]	koff [2] [s⁻¹]	Kd [3] [µM]	koff [3] [s⁻¹]	Kd [4] [µM]	koff [4] [s⁻¹]	Kd [5] [µM]	koff [5] [s⁻¹]	Binder
5.63	–	2.38	0.0299	7.12	0.392	2.85	0.00586	53.6	0.00405	mouse C5a protein (ligand) NLHLLRQKIEEQAAKYKHSVPKKCCYDGARVNFYETCEERVARVTIGPLCIRAFNECCTIANKIRKESPHKPVQLGR
3.58	–	–	–	–	–	–	–	–	–	mouse C5a-desArg (ligand) NLHLLRQKIEEQAAKYKHSVPKKCCYDGARVNFYETCEERVARVTIGPLCIRAFNECCTIANKIRKESPHKPVQLGR
